Positions count from the first letter of the chain named. One block for each molecule: values may come before it.
Columns and labels:
human CD20 (human) = human CD20 (human) (UniProt P11836); assay: fixed Ramos cell ELISA, IgG, on-rate format: 5 min IgG step and 5 min second antibody step, goat anti-human IgG-HRP, OD 450
human CD20 [1] = biological target: T1, human CD20 (human, UniProt P11836 1-297); assay: fixed Ramos cell ELISA, Fab 1 h, anti-His6 peroxidase, OD 450 (overall binding)
T1 sequence (looked up): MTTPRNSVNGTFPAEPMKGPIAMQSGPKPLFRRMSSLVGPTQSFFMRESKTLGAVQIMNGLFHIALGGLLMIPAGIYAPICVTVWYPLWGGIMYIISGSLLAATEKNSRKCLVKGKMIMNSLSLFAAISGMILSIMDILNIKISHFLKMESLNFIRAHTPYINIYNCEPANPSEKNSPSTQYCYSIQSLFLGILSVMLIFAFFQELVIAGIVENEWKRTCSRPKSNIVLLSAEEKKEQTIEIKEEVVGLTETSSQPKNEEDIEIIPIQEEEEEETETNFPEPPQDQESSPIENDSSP
Protocol: (§1) Ramos cells (ATCC) were grown in RPMI 1640 containing 10% heat inactivated Fetal Bovine Serum. Fifty microliters of Ramos cells (2-4×10⁶/ml), were pipetted into each well of a 96 well Poly-D-Lysine coated plate (BIOCAT Becton Dickinson Labware) and incubated at 37620 C., 5% CO₂ for 18 hours. Media was gently aspirated and […] of aqueous buffered zinc formalin (Anatech, Ltd.) was added to each well for 15 minutes at room temperature. Z-fix was removed and the plate was washed with phosphate-buffered saline (PBS) containing 0.05% Tween 20. The plate was blocked for 1 hour with 1% bovine serum albumin (BSA) in PBS. Dilutions of Fab or IgG were incubated with the fixed and blocked Ramos cells for 1 hour at room temperature. The plate was washed 3× with PBS 0.05% Tween […] of anti-His6 Peroxidase Mouse Monoclonal Antibody (Roche Diagnostics Corporation) at a 1:500 dilution were added to the wells and incubated 1 hour at room temperature. The plate was washed as above and developed with tetramethyl benzidine, and the reaction was stopped with 5N H₂SO₄. The plate absorbance was read at OD 450 nm. Dilutions of Fab and conjugate were in 1% BSA/PBS.

human CD20 [2] = biological target: T1, human CD20; assay: IgG binding to primary human peripheral blood B cells (CD19 sorted), KinExA equilibrium software
Protocol: (§2) SKW 6.4 cells were grown in DMEM media supplemented with 10% FCS and harvested at 5-10×10⁵ cells per ml. […] For human peripheral blood B cells, fresh CD19 positively sorted B cells were obtained from Allcells. These cells were washed two times in PBS with 1% BSA and resuspended at a concentration of 8×10⁷/ml.
(§3) Twelve, 3 fold serial dilutions were then made and 100ul of each dilution placed in a 96 well plate. To each dilution […] of antibody at 100 ng/ml was added and the plate incubated at 37620 C., 5% CO₂ for 4 hours. Each sample was then filtered with a 96 well 1 micron filter (Millipore) to remove the cells and bound antibody. Free antibody in solution was then quantified using an ELISA. Briefly, free IgG was captured in a 96 well plate coated with 1 mg/ml of anti-human kappa antibody (Southern Biotechnology) and detected using an anti-human Fc antibody coupled with HRP (Southern Biotechnology). The plate was developed using Fast TMB substrate (Pierce) and read at 450 nm.
(§4) The Kd of the antibody was then determined using the KinExA equilibrium software for an unknown antigen concentration. The OD450 value for each serial dilution was fitted with an estimated antigen concentration and the actual antibody concentration. The Kd and actual antigen concentration were then calculated.

human CD20 [3] = biological target: T1, human CD20; assay: IgG binding to SKW 6.4 cells, KinExA equilibrium software
Protocol: as §2, §3, §4

human CD20 [4] = biological target: T1, human CD20; assay: IgG binding to SKW 6.4 cells over time, free antibody by ELISA, direct kinetics KinExA software
Protocol: SKW 6.4 cells were grown in DMEM media supplemented with 10% FCS and harvested at 5-10×10⁵ cells per ml. […] An equal volume of antibody at 100 ng/ml in PBS with 1% BSA at 37620 C. was then added to the cells and the timing for the experiment started. At time intervals from 60 seconds to 10800 seconds a sample of the antibody cell solution was sampled and filtered to remove cells and bound antibody. Free antibody remaining at each time point was then quantified using the ELISA described above.
The kinetics for the antibody cell reaction was calculated using the direct kinetics KinExA software. The OD450 value for each time point was fitted using the previously calculated Kd and antigen concentration and the Kon and Koff for the reaction calculated.

human CD20 [5] = biological target: T1, human CD20; assay: cell-based or functional assay
human CD20 [6] = biological target: T1, human CD20; assay: fixed Ramos cell ELISA, OD 450 nm
human CD20 [7] = biological target: T1, human CD20; assay: IgG binding to SKW 6.4 B lymphoma cells, free antibody by ELISA, KinExA equilibrium software
Protocol: as §2, §3, §4

human CD20 [8] = biological target: T1, human CD20; assay: fixed Ramos cell ELISA, off-rate format: overnight incubation in PBS/BSA after the Fab step, anti-His6 peroxidase, OD 450
Protocol: as §1
(§5) IgG assays were performed similarly except IgG bound was detected with goat anti-human IgG-HRP. To compare antibody off-rate, after incubation with Fab or IgG the plates were incubated over night in PBS/BSA, before proceeding with the second antibody step. To compare antibody on-rate, incubation steps for Fab/IgG binding and with the second antibody were both of 5 minutes duration.

human CD20 [9] = biological target: T1, human CD20; assay: fixed Ramos cell ELISA, IgG, on-rate format: 5 min IgG step and 5 min second antibody step, goat anti-human IgG-HRP, OD 450
Protocol: as §1, §5

human CD20 [10] = biological target: T1, human CD20; assay: fixed Ramos cell ELISA, on-rate format: 5 min Fab step and 5 min second antibody step, anti-His6 peroxidase, OD 450
Protocol: as §1
IgG assays were performed similarly except IgG bound was detected with goat anti-human IgG-HRP. […]

EC50 (read off the curve) (human CD20 (human)): 1 µg/mL
Molecule: commercial RITUXAN (Oncology Supply Co.) (antibody)

EC50 (read off the curve) (human CD20 [1]): 0.06 µg/mL
Molecule: C2B8 Fab

Kd (human CD20 [2]): 0.113 nM
fold enhancement of Kd compared to the C2B8 antibody (human CD20 [3]): 10 fold
koff (human CD20 [4]): 7.7e-05 s⁻¹
kon (human CD20 [4]): 780000 M⁻¹ s⁻¹
ADCC, Estimated EC50s, ug/ml (Wil-2 cells as target) (human CD20 [5]): 0.0063 µg/mL
maximum OD relative to the C2B8 antibody (human CD20 [6]): ~1.5 times
Kd (human CD20 [7]): 0.097 nM
B1: AME 33 IgG (antibody, V domains shown)
VH: EVQLVQSGAEVKKPGESLKISCKGSGRTFTSYNMHWVRQMPGKGLEWMGAIYPLTGDTSYNQKSKLQVTISADKSISTAYLQWSSLKASDTAMYYCARSTYVGGDWQFDVWGKGTTVTVSS
VL: EIVLTQSPGTLSLSPGERATLSCRASSSVPYIHWYQQKPGQAPRLLIYATSALASGIPDRFSGSGSGTDFTLTISRLEPEDFAVYYCQQWLSNPPTFGQGTKLEIKR
notes: Full IgG; also called AME 33 antibody

EC50 (read off the curve) (human CD20 [8]): ~0.2 µg/mL
EC50 (read off the curve) (human CD20 [1]): ~0.06 µg/mL
B2: AME 1D10 Fab (Fab, V domains shown)
VH: B1 VH with R27Y, T55N, S64F, Q107T
VL: EIVLTQSPGTLSLSPGERATLSCRASSSVPYIHWYQQKPGQAPRLLIYATSNLASGIPDRFSGSGSGTDFTLTISRLEPEDFAVYYCQQWLSNPPTFGQGTKLEIK
notes: Fab, His-tagged (anti-His6 detection); constant regions and tag not given

EC50 (read off the curve) (human CD20 [9]): ~0.4 µg/mL
maximum OD relative to the C2B8 antibody (human CD20 [6]): ~1.5 times
B3: AME 1D10 IgG (antibody, V domains shown)
VH: B1 VH with R27Y, T55N, S64F, Q107T
VL: B2 VL
notes: Full IgG

binding result (human CD20 [1]): no binding (tested: about 7 µg/ml)
B4: 21E1 Hum (Fab, V domains shown)
VH: B1 VH with R27Y, L54G, T55N, S64F, L66G, V102Y, Q107S
VL: B2 VL with P30S
notes: the panels are titled Fab; also called AME 21E1 Hum; AME 21E1 Hum Fab

EC50 (read off the curve) (human CD20 [1]): ~0.08 µg/mL
EC50 (read off the curve) (human CD20 [10]): ~0.5 µg/mL
B5: AME 33 Fab (Fab, V domains shown)
VH: B1 VH
VL: B2 VL with N52A
notes: Fab

maximum OD relative to the C2B8 antibody (human CD20 [6]): ~1.5 times
B6: AME 18 IgG (antibody, V domains shown)
VH: B1 VH with S64F, T100Y, Q107T
VL: B2 VL with N52A
notes: Full IgG

EC50 (read off the curve) (human CD20 [9]): ~0.3 µg/mL
maximum OD relative to the C2B8 antibody (human CD20 [6]): ~1.5 times
B7: AME 15 IgG (antibody, V domains shown)
VH: B1 VH with R27Y, T55N, Q62R, Q107T
VL: B2 VL
notes: Full IgG

EC50 (read off the curve) (human CD20 [9]): ~0.5 µg/mL
B8: AME 2C2 IgG (antibody, V domains shown)
VH: B1 VH with R27Y, T55N, S64F, Q107T
VL: B2 VL with P30S
notes: constant regions not spelled out

EC50 (read off the curve) (human CD20 [8]): ~0.2 µg/mL
EC50 (read off the curve) (human CD20 [1]): ~0.05 µg/mL
B9: AME 15 Fab (Fab, V domains shown)
VH: B1 VH with R27Y, T55N, Q62R, Q107T
VL: B2 VL
notes: as for B2

EC50 (read off the curve) (human CD20 [1]): ~0.06 µg/mL
EC50 (read off the curve) (human CD20 [10]): ~0.3 µg/mL
B10: AME 18 Fab (Fab, V domains shown)
VH: B1 VH with S64F, T100Y, Q107T
VL: B2 VL with N52A
notes: as for B2

EC50 (read off the curve) (human CD20 [8]): ~0.1 µg/mL
EC50 (read off the curve) (human CD20 [1]): ~0.06 µg/mL
B11: AME 4H5 Fab (Fab, V domains shown)
VH: QVQLVQSGAEVKKPGASVKVSCKASGYTFTSYNMHWVRQAPGQGLEWMGAIYPGNGDTSYNQKFKWRVTMTRDTSTSTVYMELSSLRSEDTAVYYCARSTYYGGDWQFDQWGKGTTVTVSS
VL: DIQMTQSPSSLSASVGDRVTITCRASSSVHYIHWYQQKPGKVPKLLIYATSNLASGVPSRFSGSGSGTDFTLTISSLQPEDVATYYCQQWTFNPPTFGGGTKVEIK
notes: as for B2

maximum OD relative to the C2B8 antibody (human CD20 [6]): ~1.5 times
B12: AME 4H5 IgG (antibody, V domains shown)
VH: B11 VH
VL: B11 VL
notes: Full IgG

fold enhancement of Kd compared to the C2B8 antibody (human CD20 [3]): 10 fold
koff (human CD20 [4]): 7.9e-05 s⁻¹
kon (human CD20 [4]): 580000 M⁻¹ s⁻¹
Kd (human CD20 [7]): 0.145 nM
B13: AME 5 IgG (antibody, V domains shown)
VH: B11 VH with Q110E
VL: B11 VL with N52G, Q89T
notes: Full IgG
